# Target: wild type p53 (human cells) (human) (UniProt P04637)
# Assay: cell-based or functional assay
substance,measurement,value
p28^ING1 (alternative splice variant of human ING1),WAF1 mRNA level in HT1080 cells (Northern blot),4 to 6 times

# Source: patent publication US20030073084A1
